Data as given in PMC6608630, “The structural characterization of a glucosylglycerate hydrolase provides insights into the molecular mechanism of mycobacterial recovery from nitrogen starvation” (IUCrJ, 2019).

Columns and labels:
[1] = substrate: O=C(O)[C@@H](CO)O[C@H]1O[C@H](CO)[C@@H](O)[C@H](O)[C@@H]1O; test: released mannose by K-MANGL assay kit; allosteric sigmoidal fit; assay type: biochemical, Mycolicibacterium hassiacum; conditions: 20 mM sodium phosphate pH 6.0, 100 mM KCl, 5 mM MgCl2, 50 °C, Hill h 1.29, tag-less enzyme, rough estimation, incomplete kinetic curve
Text: released mannose by K-MANGL assay kit; allosteric sigmoidal fit on MhGgH (M. hassiacum glucosylglycerate hydrolase)

[2] = substrate: O=C(O)[C@@H](CO)O[C@H]1O[C@H](CO)[C@@H](O)[C@H](O)[C@H]1O; test: released glucose by glucose oxidase assay; allosteric sigmoidal fit; assay type: biochemical, Mycolicibacterium hassiacum; conditions: 20 mM sodium phosphate pH 6.0, 100 mM KCl, 5 mM MgCl2, 50 °C, Hill h 1.77, tag-less enzyme
Text: released glucose by glucose oxidase assay; allosteric sigmoidal fit on MhGgH (M. hassiacum glucosylglycerate hydrolase)

B1: MhGgH (M. hassiacum glucosylglycerate hydrolase) (Mycolicibacterium hassiacum DSM 44199) (protein)
chain: MPHDPSFTPTQLAARAAYLLRGNDLGTMTTAAPLLYPHMWSWDAAFVAIGLAPLSVERAVVELDTLLSAQWRNGMIPHIVFANGVDGYFPGPARWATATLADNAPRNRLTSGITQPPVHAIAVQRILEHARTRGRSTRAVAEAFLDRRWGDLMRWHRWLAECRDRNERGRITLYHGWESGMDNSPRWDSAYANVVPGKLPEYQRADNVIITDPSQRPSDGEYDRYLWLLEEMKAVRYDDERLPSVMSFQVEDVFFSAIFSVACQVLAEIGEDYKRPHADVKDLYLWAERFRAGVVETTDQRTGAARDFDVLAEKWLVTETAAQFAPLLCGGLPHDRERALLKLLEGPRFCGHPDLKYGLIPSTSPVSRDFRPREYWRGPVWPVLTWLFSWCFARRGWAERARLLRQEGLRQASDGSFAEYYEPFTGEPLGSMQQSWTAAAVLDWLG
notes: full-length from pETM11-MhGgH, N-terminal His tag removed with TEV protease leaving Gly-Ala dipeptide; E. coli BL21(DE3); homotetramer; last residue Gly446
With B1 the K0.5 [1] was 84.18 ± 30.27 mM, the Vmax [1] was 3.09 µmol/min/mg and the K0.5 [2] was 9.36 ± 0.69 mM. The Vmax [2] was 3.6 µmol/min/mg.
